Measured values: article PMC6529005, “FMRP - G-quadruplex mRNA - miR-125a interactions: Implications for miR-125a mediated translation regulation of PSD-95 mRNA”

Legend:
FMRP ISO1 [1] = molecular target: T1, FMRP ISO1 (UniProt Q06787 1-632); assay: fluorescence titration (2AP); 150 mM KCl, 1 uM BSA; Fluorescence: 10 mM cacodylic acid pH 6.5, 150 mM KCl, 1 uM BSA, 200 nM RNA; EMSA: 0.5x TBE native gels at 4 C (5 mM KCl for PSD-95 RNAs), incubation at room te
FMRP ISO1 [2] = molecular target: T1, FMRP ISO1; assay: EMSA; 200 nM RNA, up to 1:6 RNA:protein; Fluorescence: 10 mM cacodylic acid pH 6.5, 150 mM KCl, 1 uM BSA, 200 nM RNA; EMSA: 0.5x TBE native gels at 4 C (5 mM KCl for PSD-95 RNAs), incubation at room te
FMRP ISO1 [3] = molecular target: T1, FMRP ISO1; assay: EMSA; 200 nM RNA, up to 1:2; Fluorescence: 10 mM cacodylic acid pH 6.5, 150 mM KCl, 1 uM BSA, 200 nM RNA; EMSA: 0.5x TBE native gels at 4 C (5 mM KCl for PSD-95 RNAs), incubation at room te

GGGAAAAGGGAGGGAUGGG (structured_RNA, A11 replaced by 2-aminopurine) [PSD-95 Q11234 11-2AP]
Kd (FMRP ISO1 [1]): 128 nM

UCCCUGAGACCCUUUAACCUGUGA (ssRNA) [miR-125a]
binding result (FMRP ISO1 [2]): no binding

UAGGUAGUUUCAUGUUGUUGGG (ssRNA) [miR-196a-1]
binding result (FMRP ISO1 [3]): no binding

GGGAGGGAGGGUGGG (structured_RNA, A4 replaced by 2-aminopurine) [PSD-95 Q2 4-2AP]
Kd (FMRP ISO1 [1]): 195 nM
